Laboratory results published in the RNAGym collection of RNA variant scans (doi:10.1101/gr.219683.116).

B1: mRNA-splicing (parent)
chain: AGUUGCUGCUGGGAGCUCCAGCACAGUGAAAUGGACAGAAGGGCAGAGCAA

Variants of: B1
Assay: exon inclusion enrichment index; higher = more inclusion; WT1 exon 5 minigene, HEK293

Variant	exon inclusion enrichment index
A20C	2.03
A39G	0.074
A39U	0.000772
A39C	0.0251
A25U	0.241
A25G	0.595
A25C	1.1
A35G C36U	0.00277
A35G C36A	0.0734
A35G C36G	0.00669
A45U	0.318
A45C	0.223
A45G	0.486
A31U U32A	0.00762
A31U U32C	0.301
A31U U32G	0.056
A29G	0.272
A29C	0.0903
A29U	0.0295
C44A A45U	0.469
C44A A45C	0.767
C44A A45G	0.233
A25U G26A	0.136
A25U G26C	0.235

Variant	exon inclusion enrichment index
A25U G26U	0.0827
G43A C44G	0.723
G43A C44A	0.778
G43A C44U	0.129
G21U	1.52
G21C	2.64
G21A	1.75
A35U C36A	0.000875
A35U C36U	0.000825
A35U C36G	0.00845
C19G A20G	1.23
C19G A20C	2.84
C19G A20U	2.21
U32A G33C	0.181
U32A G33A	0.0558
U32A G33U	0.0657
C18U C19U	0.0838
A35U	0.0139
A35C	0.041
A35G	0.0494
U32A	0.107
U32G	0.0106
U32C	0.336
C36G A37G	0.0334

Variant	exon inclusion enrichment index
C36G A37U	0.0724
C36G A37C	0.127
G46C A47C	0.227
G46C A47U	0.224
G46C A47G	0.339
C44G A45C	0.399
C44G A45G	0.0345
C44G A45U	0.0615
A40C	0.557
A40G	0.0976
A40U	0.156
G43U C44A	0.00923
G43U C44G	0.0978
G43U C44U	0.0355
C24A A25G	0.315
C24A A25U	0.16
C24A A25C	0.728
A29G A30G	0.114
A29G A30C	0.0218
A29G A30U	0.0289
C19A A20G	0.356
C19A A20C	1.81
C19A A20U	1.14
G26C U27A	0.11

Variant	exon inclusion enrichment index
G26C U27C	0.584
G26C U27G	0.615
U27G	0.0622
U27A	0.201
U27C	0.36
A29U A30U	0.0389
A29U A30C	0.119
A29U A30G	0.237
A30C	0.184
A30U	0.0645
A30G	0.182
A23U C24A	0.217
A23U C24U	0.078
A23U C24G	0.96
A30U A31G	0.155
A30U A31U	0.087
A30U A31C	0.202
A23C	0.646
A23G	0.414
A23U	0.475
C36U A37C	0.0746
C36U A37U	0.0501
C36U A37G	0.156
C24U A25G	0.487

Variant	exon inclusion enrichment index
C24U A25C	1.23
C24U A25U	0.208
A45C G46A	0.0421
A45C G46U	0.0235
A45C G46C	0.068
G26U U27A	0.0316
G26U U27G	0.394
G26U U27C	0.588
G42U G43A	0.492
G42U G43U	0.54
G42U G43C	0.112
A39U A40U	0.0388
A39U A40G	0.0141
A39U A40C	0.276
G28C A29U	0.0556
G28C A29G	0.405
G28C A29C	0.118
A23C C24U	0.256
A23C C24G	2.29
A23C C24A	0.968
G46A	0.245
G46U	0.0964
G46C	0.155
A39G A40G	0.0122

Variant	exon inclusion enrichment index
A39G A40C	0.199
A39G A40U	0.0108
A35C C36G	0.122
A35C C36U	0.00835
A35C C36A	0.0616
G34U	0.0244
G34C	0.0362
G34A	0.0592
C36G	0.0745
C36A	0.0939
C36U	0.0249
A20U G21U	1.91
A20U G21A	1.45
A20U G21C	2.37
G41C G42C	0.703
G41C G42U	0.907
G41C G42A	0.238
C44A	0.507
C44G	0.391
C44U	0.0165
A31G U32A	1.08
A31G U32G	0.104
A31G U32C	0.99
G43C C44A	0.932

Variant	exon inclusion enrichment index
G43C C44G	1.62
G43C C44U	0.086
A31C U32G	0.373
A31C U32A	0.0661
A31C U32C	0.643
A25C G26U	0.368
A25C G26A	0.448
A25C G26C	0.435
C19U A20C	1.96
C19U A20G	0.684
C19U A20U	1.01
G38A	0.0459
G38C	0.09
G38U	0.029
G34U A35C	0.0394
G34U A35G	0.142
G34U A35U	0.0144
G33A G34C	0.0101
G33A G34U	0.0122
G33A G34A	0.0101
A37G G38U	0.0457
A37G G38A	0.201
A37G G38C	0.249
